Assay [1] deals with Human iPS cells (201B7). Description: Expression of transcription factors in iPS cells cultured with single growth-promoting agents (RT-PCR, electrophoresis). It counts as cell-based. Particulars: iPS cells in iPSm(−) medium with the growth-promoting agent added; PCR and electrophoresis, FIG. 2. As for the experimental part:
Reverse transcriptase (Life Technologies Japan Ltd.) was used to synthesize cDNAs of iPS cells, fetal hepatic cells and adult hepatic cells from 3 μg of RNA. The cDNAs were subjected to polymerase chain reaction (PCR) using the following primers to GATA4, FOXA2, HEX, C/EBPα and C/EBPβ, respectively, and to electrophoresis using 2% low-melting agarose (Lonza) and 1×TAE, for investigations on the expression of GATA4, FOXA2, HEX, C/EBPα and C/EBNβ in the iPS cells, fetal hepatic cells and adult hepatic cells.
After electrophoresis, the 2% low-melting agarose was irradiated with ultraviolet rays at 254 nm from a UV transilluminator (UVP LLC, NLMS-20E), and a Polaroid photograph (FUJIFILM Corporation, FP-3000B) thereof was taken with a gel camera (Funakoshi DS-300) to analyze an electrophoretic pattern.
PCR cycles performed included 30 cycles of thermal denaturation: 1 minute at 94° C.; annealing: 1 minute and elongation reaction: 1 minute at 72° C.
Human iPS cells (201B7, RIKEN cell bank) were seeded onto a matrigel-coated 6-well plate, and cultured in a feeder-less medium, ReproFF (trade name, Reprocell Inc.) for culture of stem cells maintained in an undifferentiated state, without using a feeder cell, under conventional conditions: 37° C. and 5% carbon dioxide.
A medium obtained by adding a 20% knock-out serum replacement (Life Technologies Japan Ltd.), 10% Minimum Essential Amino Acids (Life Technologies Japan Ltd.), 2 mM of L-glutamine (Life Technologies Japan Ltd.) and 1 mM of 2-mercaptoethanol to a D-MEM/F12 medium (Dulbecco's Modified Eagle Medium-F12 medium, Sigma-Aldrich Japan) was used as an iPSm(−) medium.
The following growth-promoting agents were added to the iPSm(−) medium, and SOX-17, GATA6, FOXA2, GATA4, HEX, TTR and C/EBPα were expressed in a manner similar to that in Experiment 1.
As the growth-promoting agents, added were bFGF (basic fibroblast growth factor, Wako Pure Chemical Industries, Ltd.), BMP (bone morphogenetic protein)-4 (Wako Pure Chemical Industries, Ltd.), oncostatinM (Wako Pure Chemical Industries, Ltd.), an epidermal growth factor (EGF, Wako Pure Chemical Industries, Ltd.), a nerve growth factor (NGF, R & D Systems, Inc.), TGF-β, (transform growth factor-β, R& D Systems, Inc.), retinoic acid (Sigma-Aldrich Japan) and a hepatic cell growth factor (HGF, Sigma-Aldrich Japan).
RT-PCR to SOX-17, GATA6 and TTR was performed under the following conditions.

Assay [2] concerns Human iPS cells (201B7). The assay is described as follows: Induction of differentiation into hepatic progenitor cells by growth-promoting agents (real-time quantitative PCR of AFP and DLK-1). It counts as cell-based. The note with it: iPS cells transfected with FOXA2, GATA4, HEX, C/EBPα three times every three days, 8th day, n=3, ± standard error, ReproFF lane = 100. As for the experimental part:
Human iPS cells (201B7, RIKEN cell bank) were seeded onto a matrigel-coated 6-well plate, and cultured in a medium, ReproFF in accordance with a conventional method under the following conditions: 37° C. and 5% carbon dioxide. A lipofection reagent, Lipofectamine LTX (registered trade mark, Life Technologies Japan Ltd.) was used to transfect 0.5 μg of expression plasmids of FOXA2, GATA4, HEX and C/EBPα, respectively. […]
The transfection of the transcription factors was repeated three times every three days, and, on the 8th day, RNA was extracted using Isogen (NIPPON GENE CO., LTD.). […] Then, the amount of expressed α-fetoprotein (AFP), which was an indicator of hepatic progenitor cells, was analyzed by the real-time quantitative PCR method using a real-time PCR analysis reagent, Fast SYBR Green Master Mix (trade name, Life Technologies Japan Ltd.). […] The amounts of α-fetoprotein (AFP) and Delta-like (DLK)-1 expressed were quantitatively determined as an indicator of hepatic progenitor cells by employing ribosome-related protein (RLP19) as internal standard (each group, n=3).
The real-time quantitative PCR was performed by using the following primers through a PCR cycle including 30 cycles of 5 seconds at 95° C. and 20 seconds at 60° C.

Entries after “also recorded” stand apart in the source; their conditions may differ.

B1: epidermal growth factor (protein, UniProt P01133 23-1207, looked up)
Pro-epidermal growth factor: PQHWSCPEGTLAGNGNSTCVGPAPFLIFSHGNSIFRIDTEGTNYEQLVVDAGVSVIMDFHYNEKRIYWVDLERQLLQRVFLNGSRQERVCNIEKNVSGMAINWINEEVIWSNQQEGIITVTDMKGNNSHILLSALKYPANVAVDPVERFIFWSSEVAGSLYRADLDGVGVKALLETSEKITAVSLDVLDKRLFWIQYNREGSNSLICSCDYDGGSVHISKHPTQHNLFAMSLFGDRIFYSTWKMKTIWIANKHTGKDMVRINLHSSFVPLGELKVVHPLAQPKAEDDTWEPEQKLCKLRKGNCSSTVCGQDLQSHLCMCAEGYALSRDRKYCEDVNECAFWNHGCTLGCKNTPGSYYCTCPVGFVLLPDGKRCHQLVSCPRNVSECSHDCVLTSEGPLCFCPEGSVLERDGKTCSGCSSPDNGGCSQLCVPLSPVSWECDCFPGYDLQLDEKSCAASGPQPFLLFANSQDIRHMHFDGTDYGTLLSQQMGMVYALDHDPVENKIYFAHTALKWIERANMDGSQRERLIEEGVDVPEGLAVDWIGRRFYWTDRGKSLIGRSDLNGKRSKIITKENISQPRGIAVHPMAKRLFWTDTGINPRIESSSLQGLGRLVIASSDLIWPSGITIDFLTDKLYWCDAKQSVIEMANLDGSKRRRLTQNDVGHPFAVAVFEDYVWFSDWAMPSVMRVNKRTGKDRVRLQGSMLKPSSLVVVHPLAKPGADPCLYQNGGCEHICKKRLGTAWCSCREGFMKASDGKTCLALDGHQLLAGGEVDLKNQVTPLDILSKTRVSEDNITESQHMLVAEIMVSDQDDCAPVGCSMYARCISEGEDATCQCLKGFAGDGKLCSDIDECEMGVPVCPPASSKCINTEGGYVCRCSEGYQGDGIHCLDIDECQLGEHSCGENASCTNTEGGYTCMCAGRLSEPGLICPDSTPPPHLREDDHHYSVRNSDSECPLSHDGYCLHDGVCMYIEALDKYACNCVVGYIGERCQYRDLKWWELRHAGHGQQQKVIVVAVCVVVLVMLLLLSLWGAHYYRTQKLLSKNPKNPYEESSRDVRSRRPADTEDGMSSCPQPWFVVIKEHQDLKNGGQPVAGEDGQAADGSMQPTSWRQEPQLCGMGTEQGCWIPVSSDKGSCPQVMERSFHMPSYGTQTLEGGVEKPHSLLSANPLWQQRALDPPHQMELTQ
modifications: Pro-epidermal growth factor
notes: growth factor used as growth-promoting agent (Wako Pure Chemical Industries)
Consider B1, for which, in the assay with Human iPS cells (201B7) [1], the “expression of C/EBPα” value is on record as “not observed to be expressed”, the “expression of FOXA2” value is given as “not observed to be expressed”, the “expression of GATA4” value was “not observed to be expressed” and the “expression of GATA6” value is reported as “observed to be expressed”. The “expression of HEX” value in the assay on Human iPS cells (201B7) [1] is “not observed to be expressed”. In the assay on Human iPS cells (201B7) [2] (FIG. 3-1), the “α-fetoprotein/RPL19 ratio (mRNA expression)” value is 139±13. Moreover, the “DLK-1/RPL19 ratio (mRNA expression)” value with Human iPS cells (201B7) [2] (FIG. 3-2) is 59±7.

B2: oncostatin M (protein, UniProt P13725 26-221, looked up)
Oncostatin-M: AAIGSCSKEYRVLLGQLQKQTDLMQDTSRLLDPYIRIQGLDVPKLREHCRERPGAFPSEETLRGLGRRGFLQTLNATLGCVLHRLADLEQRLPKAQDLERSGLNIEDLEKLQMARPNILGLRNNIYCMAQLLDNSDTAEPTKAGRGASQPPTPTPASDAFQRKLEGCRFLHGYHRFMHSVGRVFSKWGESPNRSRR
notes: as for B1
As for B2, in the assay on Human iPS cells (201B7) [1], the “expression of C/EBPα” value is “slightly expressed; also recorded: not observed to be expressed”, the “expression of FOXA2” value was “not observed to be expressed”, the “expression of GATA4” value was “not observed to be expressed” and the “expression of HEX” value is on record as “not observed to be expressed”. Further, the “expression of SOX-17” value in the assay on Human iPS cells (201B7) [1] is “observed to be expressed”.
